Biological target: the molecule itself
Experiment: SEC; analytical gel filtration, Superdex-200 10/300GL, 50 mM Tris pH 7, 500 mM NaCl, 5% glycerol; mass against protein standards

B1: Tsi2–H6 (C-terminal hexahistidine-tagged Tsi2) (natural protein)
chain: MNLKPQTLMVAIQCVAARTRELDAQLQNDDPQNAAELEQLLVGYDLAADDLKNAYEQALGQYSGLPPYDRLIEEPAS
notes: source: E. coli BL21 pLysS, purified (HisTrap FF, Sephacryl S-200 size exclusion); not shown: His6, C-terminal, kept
- stoichiometry N: 2

Source: article PMC3325213 (PLoS Pathogens, 2012)
